Test system: MS2 coat protein
Assay: apparent KD of MS2 coat protein; designed switch direction (-1 OFF switch, 1 ON switch): -1; higher = weaker reporter binding
Outline: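 The apparent KD reported per design is the median over clusters of curve fits to normalised cluster fluorescence. The RNA switches were transcribed on Illumina chips by stalled E. coli RNA polymerase. SNAP-549-labelled MS2 coat protein was titrated from 0.7 or 1.5 nM, doubling up to 3 µM, in Tris-HCl pH 7.5 buffer containing KCl, MgCl2, BSA, DTT, tRNA and Tween-20, with no input, 200 uM small-molecule ligand, or an oligonucleotide input.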

[1] = Eterna round: R95, input ligand: FMN 200 uM
[2] = Eterna round: R95, input ligand: microRNA oligo, concentration not stated
[3] = Eterna round: R95, input ligand: none
[4] = input ligand: microRNA oligo, concentration not stated

| Sequence | apparent KD of MS2 coat protein (input ligand: FMN 200 uM) [nM] | apparent KD of MS2 coat protein (input ligand: none) [nM] | apparent KD of MS2 coat protein [2] [nM] | other results |
| --- | --- | --- | --- | --- |
| CCCUCACUUGAGGAUCACCCAAGUCAGGAUAUCUCCCACCCGGCAACAACCGGGUGCCAGAGAAGGGACUCAAA [Xemaques] (Eterna round: R97, puzzle: Exclusion 1) | 17.9 | 17 | – | – |
| CCCUCAGUCUAGGAUAUAACAAUCAGAUAUCAGUUAGAAGGAGACACAUGAGGAUCACCCAUGUGGGUCAAUAA [Bearener] (puzzle: Exclusion 6) | – | – | 20.2 | apparent KD of MS2 coat protein [1]: 50.7 nM; apparent KD of MS2 coat protein [3]: 21.3 nM |
| CCGAAUAAGCAGGAUAUCGAAUCGGAAACGAUUCGAGAAGGGUUAACAUGAGGAUCACCCAUGUUCCUUAACGG [Mat - Exclusion 6 - Eli Mod - D78] (puzzle: Exclusion 6) | – | – | 19.2 | – |
| CCGAGGUAGCGGUCCUAUGACAUGAGGAUCACCCAUGUACCUCGCUACGAGCUUUUUGCUCAUCUUAUAAUUCUCGG [Atriat] (puzzle: Sensor v3, turn-off variant 1) | – | – | 26.1 | apparent KD of MS2 coat protein [1]: 20.9 nM; apparent KD of MS2 coat protein [3]: 19.2 nM |
| CCGCAAAUGCAGGAUAUCGUAUCGGAUACGAUACGAGAAGGGCAAACAUGAGGAUCACCCAUGUGUCCUAGCGG [Fiskers Ex 6 - 39] (puzzle: Exclusion 6) | – | – | 13.7 | – |
| CCGCUCCGUGUAGGAUAUUGGCCUGCUCUGGGCCGAGAAGGACAUGAGGAUCACCCAUGUAUGUUAUUAUCACGCGUGGCGCAU [Design 79] (Eterna round: R96, puzzle: Exclusion NG 1) | 31.6 | 21.6 | – | apparent KD of MS2 coat protein [4]: 14.5 nM |
| CCGGAAAAGGAGGAUAUAGGAGUCGAUAGACACCUAGAAGGUCUGACAUGAGGAUCACCCAUGUGUCCUACCGG [Fiskers Ex 6 - 89] (puzzle: Exclusion 6) | – | – | 20.8 | – |
| CCGGAAAUAGAGGAUAUAGGACUCGAUAGAGUCCUAGAAGGCUAUACAUGAGGAUCACCCAUGUGUCCUACCGG [Fiskers Ex 6 - 64] (puzzle: Exclusion 6) | – | – | 13.6 | apparent KD of MS2 coat protein [1]: 40.7 nM; apparent KD of MS2 coat protein [3]: 13.4 nM |
| CCGGAUAUGCAGGAUAUCGUAUCGGAUACGAUACGAGAAGGGUAUACAUGAGGAUCACCCAUGUGUCCUACCGG [Mat - Exclusion 6 - Eli Mod - D85] (puzzle: Exclusion 6) | – | – | 19.8 | – |
| CCGGUGUGAGGAUAUCCAUCUGGAUCAGACUAGAUCCUGAUGGAGAAGGCACAUGAGGAUCACCCAUGUUACGG [Eli 4x 4.42] (Eterna round: R97, puzzle: Exclusion 4) | 567 | 656 | – | – |
| CCGGUUGGCGCAGGAUAUACAUGAGGAUCACCCAUGUUCAUGAGGAUCACCCAUGAGGUAAUGAUGUAGAAGGGUGGCCCGGCC [A second MS2 with the first and last base exchanged] (Eterna round: R96, puzzle: Exclusion NG 2) | 30.5 | 33.6 | – | apparent KD of MS2 coat protein [4]: 18.5 nM |
| CCGGUUGGCGCAGGAUAUACAUGAGGAUCACCCAUGUUCAUGAGGAUCGCCCAUGAGUUUUUGUUGUAGAAGGGUGGCCCGGCC (Eterna round: R96, puzzle: Exclusion NG 2) | 92.4 | 84 | – | apparent KD of MS2 coat protein [4]: 70 nM |
| CCGUAACAUGAGGAUCACCCAUGUCAGGAUAUUCCAAAAUCGUCGAAAGACGAUAACAGAAGAAGGGACAACGG [Fiskxlusion 2 - Jieux - Exclusion 1] (Eterna round: R97, puzzle: Exclusion 1) | 47.6 | 28.9 | – | – |
| CCGUAGUCAGGAUAUACAUGAGGAUCACCCAUGUAAAAUUUUAAUUUAAUUUGAAGGUGUAGAAGGGACCAGCC [Ex3 #28] (Eterna round: R97, puzzle: Exclusion 3) | 33.5 | 35.6 | – | – |
| CCGUGGCAAGGAUAUACAUAGGAGAGGAAGGCAAGAGGAGGACAUGAGGAUCACCCAUGUAGAAGGUGCAGAUC [JR_Exclu2_Sub028] (puzzle: Exclusion 2) | – | – | 71.7 | – |
| CCUAAACAUGAGGAUCACCCAUGUGAGGAUAUGCACACCACAACAUGCGGUUGAGGGUGCAGAAGGCAUAUGAG [Eternabot (L1) Solution 60] (Eterna round: R97, puzzle: Exclusion 1) | 99.2 | 34.2 | – | – |
| CCUACGUUGUAGGAUAUAGUGAUUUAUUAAUAUUUAGAAGGACAUACAUGAGGAUCACCCAUGUGAGUUGGGUG [Eternabot (L2) Solution 27] (Eterna round: R97, puzzle: Exclusion 6) | 153 | 674 | – | – |
| CCUAGUUGGUAAGGAUAUCCUACACUGUUCUGACCCGGGCAUGCUACAUGAGGAUCACCCAUGUGGGAGAAGGUGCGUCAUCGC [Design 15] (Eterna round: R96, puzzle: Exclusion NG 2) | 30.5 | 37.3 | – | apparent KD of MS2 coat protein [4]: 27.1 nM |

| Sequence | apparent KD of MS2 coat protein (input ligand: FMN 200 uM) [nM] | apparent KD of MS2 coat protein (input ligand: none) [nM] | apparent KD of MS2 coat protein [2] [nM] | other results |
| --- | --- | --- | --- | --- |
| CCUAGUUGGUAAGGAUAUCCUACAUUGUUCUGGCCCGGGCAUGCUACAUGAGGAUCACCCAUGUGGGAGAAGGUGCGUCAUCGC [Design 17] (Eterna round: R96, puzzle: Exclusion NG 2) | 80.4 | 71.7 | – | apparent KD of MS2 coat protein [4]: 53.3 nM |
| CCUCAGUAAGGAUAUCAGCUUAUGGAGGUGGUAAUGAGAGCUGAGAAGGUACAUGAGGAUCACCCAUGUUAGUU [JL Zatite mod 1] (puzzle: Exclusion 4) | – | – | 46.2 | – |
| CCUCCACAUGAGGAUCACCCAUGUAAGGAUAUACCACGCUAAGGCAAACAAAAGAACGGUAGAAGGUACCUGGC [Eternabot (Original) Solution 44] (Eterna round: R97, puzzle: Exclusion 1) | 32.7 | 23.5 | – | – |
| CCUCCCUGAGGAUAUCCACCCUCAUACAUGAGGAUCACCCAUGUUCAUCCGUGGGUACCCGGAGAAGGCAGCUCUC [Megrez-c] (Eterna round: R97, puzzle: Exclusion 5) | 80.8 | 86.7 | – | – |
| CCUCGACAUGAGGAUCACCCAUGUCAGGAUAUUGUGUUUUUGGUUUUUUACCUUUAGGCAAGAAGGGAUGUGUG [LRO-Excl1-18] (puzzle: Exclusion 1) | – | – | 14.4 | – |
| CCUCGACAUGAGGAUCACCCAUGUGAGGAUAUGGCCUGUAUGGCGUGAGCUGAAUCAAUCAGAAGGCGCGUGGG [salish99_ex1_r4_054] (Eterna round: R97, puzzle: Exclusion 1) | 56.3 | 27 | – | – |
| CCUCGUGCACGAGGAUAUUGGAAAGGAAGUGUACGAGAAGGCGUGCCGAGGGAACAUGAGGAUCACCCAUGUGGCCUCAUCACA [PowerStrip EXNG 1.13] (Eterna round: R96, puzzle: Exclusion NG 1) | 120 | 152 | – | apparent KD of MS2 coat protein [4]: 97.5 nM |
| CCUCUACAUGAGGAUCACCCAUGUGAGGAUAUAAGAUUGCGGAUUCCGCACUACGGUCUUAGAAGGCGCGUGGA [Texebibia] (puzzle: Exclusion 1) | – | – | 17.2 | – |
| CCUGCACAUGAGGAUCACCCAUGUCAGGAUAUCUCGCCGUCGGCUUGCCGACGGUAUUAGAGAAGGGACACGGG [JL Tixe mod 1] (puzzle: Exclusion 1) | – | – | 22 | – |
| CCUGCGGACAAAGGAUAUUGCGGUGGCCGGCUCGGCGUACCGAGCCUACAUGAGGAUCACCCAUGUAAGAAGGUUGUCGUUGGU [JL ViennaUCT Qudice mod] (Eterna round: R96, puzzle: Exclusion NG 2) | 186 | 33.5 | – | apparent KD of MS2 coat protein [4]: 26.9 nM |
| CCUUCUCGUGUCAGGAUAUCCACUCAUCGAAAUUAGGAGAAGGGACAUGAGGAUCACCCAUGUAUACAUGCCAG [Cequesar] (puzzle: Brourd's mod of Exclusion 4) | – | – | 61.7 | – |
| CCUUGGUGAGGAUAUUGAAAAUCUGUCAUAUGCCGACAACUCAAGAAGGUACAUGAGGAUCACCCAUGUUGGGC [Eternabot (Original) Solution 18] (Eterna round: R97, puzzle: Exclusion 4) | 107 | 102 | – | – |
| CCUUUGUCAGGAUAUCAGAACGCGCUCGUAGGGAGCGCGAAUGAGAAGGGACAUGAGGAUCACCCAUGUAAAGA [Soedes] (puzzle: Exclusion 4) | – | – | 74.3 | – |
| CGAACUGUCUAGGAUAUACUCCCAUGCAGUUGAGUAGAAGGAGACACAUGAGGAUCACCCAUGUGACCCGAAGU [EX6 C.12] (Eterna round: R97, puzzle: Exclusion 6) | 25.3 | 19.7 | – | – |
| CGAAGAUGAGGAUAUGCUACAGACAUGUUCGCGCAGAAGUAACAUGAGGAUCACCCAUGUAGAAGGCAUCUUUU [Eternabot (L2) Solution 88] (Eterna round: R97, puzzle: Exclusion 2) | 36.5 | 35.9 | – | – |
| CGAAGUAGAAACCGAUCCUACAUGAGGAUCACCCAUGUAGCAAGACGUGCACGCGAAGCUCGUCAGACUACCAGAAG [salish99_TOv1_r3_004] (puzzle: Sensor v3, turn-off variant 1) | – | – | 352 | apparent KD of MS2 coat protein [1]: 343 nM; apparent KD of MS2 coat protein [3]: 332 nM |
| CGAUGCUCGAGUCGACAUGAGGAUCACCCAUGUAGAGUUAGUGAGGAUAUCGGAGACACAUAGUAUGAGAAGGCGCGAACCUGA [Ex NG3 #17] (Eterna round: R96, puzzle: Exclusion NG 3) | 21.8 | 18.8 | – | apparent KD of MS2 coat protein [4]: 16.3 nM |
| CGAUUGUGAGGAUAUACUUGUGGUAAUGCACCUGUAUGUAAACAUGAGGAUCACCCAUGUAGAAGGUACGACAG [Eternabot (L2) Solution 11] (Eterna round: R97, puzzle: Exclusion 2) | 27.6 | 27.5 | – | – |

From the supplement of paper PMC9170038
